Residue numbers refer to the chain shown, from its start. In names and notes the source's numbering stands.
T1: EsCas13d, nuclease-dead (Eubacterium siraeum, UniProt B0MS50, R295A;H300A;R849A;H854A)
T1 sequence: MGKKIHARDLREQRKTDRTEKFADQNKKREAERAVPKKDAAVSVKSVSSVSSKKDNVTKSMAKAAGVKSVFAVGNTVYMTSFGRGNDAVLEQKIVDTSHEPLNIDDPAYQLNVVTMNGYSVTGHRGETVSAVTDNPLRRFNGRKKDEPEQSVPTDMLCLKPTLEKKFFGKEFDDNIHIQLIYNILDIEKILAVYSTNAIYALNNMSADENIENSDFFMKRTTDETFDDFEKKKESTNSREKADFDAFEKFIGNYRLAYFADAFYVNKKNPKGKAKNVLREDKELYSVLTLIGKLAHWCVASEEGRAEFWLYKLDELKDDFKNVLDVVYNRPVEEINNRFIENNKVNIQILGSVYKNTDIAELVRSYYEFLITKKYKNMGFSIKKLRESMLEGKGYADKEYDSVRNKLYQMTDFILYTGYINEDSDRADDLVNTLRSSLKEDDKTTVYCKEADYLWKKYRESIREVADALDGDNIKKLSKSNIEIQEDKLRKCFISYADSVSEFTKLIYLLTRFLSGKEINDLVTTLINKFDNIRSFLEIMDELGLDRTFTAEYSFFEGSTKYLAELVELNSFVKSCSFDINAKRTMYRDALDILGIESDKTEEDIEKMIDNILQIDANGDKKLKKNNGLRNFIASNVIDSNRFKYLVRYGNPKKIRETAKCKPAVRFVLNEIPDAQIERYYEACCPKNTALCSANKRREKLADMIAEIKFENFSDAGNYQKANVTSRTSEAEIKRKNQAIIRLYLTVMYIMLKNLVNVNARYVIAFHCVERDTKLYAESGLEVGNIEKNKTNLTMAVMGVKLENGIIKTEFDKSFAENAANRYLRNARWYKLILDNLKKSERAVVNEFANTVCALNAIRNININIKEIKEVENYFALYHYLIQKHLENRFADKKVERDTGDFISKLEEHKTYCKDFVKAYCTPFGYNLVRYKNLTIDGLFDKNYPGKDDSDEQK

B1: target 3 A5G,U7C (mixed)
RNA 1: CACCCGUGCAAAAUUGCAGGGGUCUAAAACGACCUGAAUAUUUCAGAUCAAA
RNA 2: GGGAAUGGAUCCACAUCUACGAAUUCGUUUUUGAUCUGAAAUAUCCGGGUCUGCAGAUCGGAAGAGCACACGU
B2: target 3 insA 3' of 22,insC 3' of 4 (mixed)
RNA 1: B1 RNA 1
RNA 2: GGGAAUGGAUCCACAUCUACGAAUUCGUUUAUUGAUCUGAAAUAUUCAGCGUCUGCAGAUCGGAAGAGCACACGU
B3: target 3 C1A,G4U (mixed)
RNA 1: B1 RNA 1
RNA 2: B1 RNA 2 with C45U, G47A, G48U, C51A
B4: target 3 G3U,U8G (mixed)
RNA 1: B1 RNA 1
RNA 2: B1 RNA 2 with U44G, C45U, G47A, G49U
B5: target 3 C1G,G4U (mixed)
RNA 1: B1 RNA 1
RNA 2: B1 RNA 2 with C45U, G47A, G48U, C51G
B6: target 3 C1G,G3A (mixed)
RNA 1: B1 RNA 1
RNA 2: B1 RNA 2 with C45U, G47A, G49A, C51G
B7: target 3 G4C,C6U (mixed)
RNA 1: B1 RNA 1
RNA 2: B1 RNA 2 with C45U, C46U, G47A, G48C
B8: target 1 A1C,U3C (mixed)
RNA 1: CACCCGUGCAAAAAUGCAGGGGUCUAAAACUGAGCGGAUAACCUCUCUAUGG
RNA 2: GGGAAUGGAUCCACAUCUACGAAUUCGUACCAUAGAGAGGUUAUCCGCCCCCCGAGAUCGGAAGAGCACACGU
B9: target 3 insC 3' of 4,insU 3' of 4 (mixed)
RNA 1: B1 RNA 1
RNA 2: GGGAAUGGAUCCACAUCUACGAAUUCGUUUUUGAUCUGAAAUAUUCAGCUGUCUGCAGAUCGGAAGAGCACACGU
B10: target 3 U2C,G4A (mixed)
RNA 1: B1 RNA 1
RNA 2: B1 RNA 2 with C45U, G47A, G48A, U50C
B11: target 3 insA 3' of 21,insG 3' of 6 (mixed)
RNA 1: B1 RNA 1
RNA 2: B2 RNA 2 with A31U, U32A, A48G, G49A, C50G
B12: target 3 insA 3' of 6,insG 3' of 2 (mixed)
RNA 1: B1 RNA 1
RNA 2: B9 RNA 2 with G48A, C49G, U50G, G51U, U52G
B13: target 3 C1U,U8G (mixed)
RNA 1: B1 RNA 1
RNA 2: B1 RNA 2 with U44G, C45U, G47A, C51U
B14: target 3 U2G,U10A (mixed)
RNA 1: B1 RNA 1
RNA 2: B1 RNA 2 with U42A, C45U, G47A, U50G
B15: target 3 U20C (mixed)
RNA 1: B1 RNA 1
RNA 2: B1 RNA 2 with U32C, C45U, G47A
B16: target 3 C1U,A5C (mixed)
RNA 1: B1 RNA 1
RNA 2: B1 RNA 2 with C45U, G47C, C51U
B17: target 3 del2,del4 (mixed)
RNA 1: B1 RNA 1
RNA 2: GGGAAUGGAUCCACAUCUACGAAUUCGUUUUUGAUCUGAAAUAUUCAGCUGCAGAUCGGAAGAGCACACGU
B18: target 1 insC 3' of 20,insU 3' of 9 (mixed)
RNA 1: B8 RNA 1
RNA 2: GGGAAUGGAUCCACAUCUACGAAUUCGUACCACUAGAGAGGUUAUUCCGCUCACCGAGAUCGGAAGAGCACACGU
B19: target 3 del2,del22 (mixed)
RNA 1: B1 RNA 1
RNA 2: GGGAAUGGAUCCACAUCUACGAAUUCGUUUUGAUCUGAAAUAUUCAGGCUGCAGAUCGGAAGAGCACACGU
B20: target 3 insC 3' of 22,insA 3' of 6 (mixed)
RNA 1: B1 RNA 1
RNA 2: B2 RNA 2 with A31C, G49A, C50G
B21: target 3 G4U,U22G (mixed)
RNA 1: B1 RNA 1
RNA 2: B1 RNA 2 with U30G, C45U, G47A, G48U
B22: target 3 insG 3' of 9,insA 3' of 3 (mixed)
RNA 1: B1 RNA 1
RNA 2: B9 RNA 2 with U44G, C46U, A47C, G48A, C49G, U50G, G51A
B23: target 3 G3C,C6A (mixed)
RNA 1: B1 RNA 1
RNA 2: B1 RNA 2 with C45U, C46A, G47A, G49C
B24: target 3 A18G,U21C (mixed)
RNA 1: B1 RNA 1
RNA 2: B1 RNA 2 with U31C, A34G, C45U, G47A
B25: target 3 insG 3' of 7,insG 3' of 7 (mixed)
RNA 1: B1 RNA 1
RNA 2: B9 RNA 2 with C46G, A47G, G48C, C49A, U50G
B26: target 3 insU 3' of 14,insG 3' of 2 (mixed)
RNA 1: B1 RNA 1
RNA 2: GGGAAUGGAUCCACAUCUACGAAUUCGUUUUUGAUCUGUAAAUAUUCAGGUGCUGCAGAUCGGAAGAGCACACGU
B27: target 3 G3C,A5G (mixed)
RNA 1: B1 RNA 1
RNA 2: B1 RNA 2 with C45U, G49C
B28: target 3 G4A,U8A (mixed)
RNA 1: B1 RNA 1
RNA 2: B1 RNA 2 with U44A, C45U, G47A, G48A
B29: target 1 insA 3' of 17,insG 3' of 4 (mixed)
RNA 1: B8 RNA 1
RNA 2: B18 RNA 2 with C33U, U34A, A35G, G36A, U46C, C48G, G49C, C50G
B30: target 3 insU 3' of 6,insC 3' of 5 (mixed)
RNA 1: B1 RNA 1
RNA 2: B9 RNA 2 with A47U, G48A, U50G
B31: target 3 insA 3' of 8,insC 3' of 3 (mixed)
RNA 1: B1 RNA 1
RNA 2: B9 RNA 2 with U45A, C46U, A47C, G48A, C49G, U50G, G51C
B32: target 3 insG 3' of 18,insU 3' of 1 (mixed)
RNA 1: B1 RNA 1
RNA 2: B26 RNA 2 with U35G, C36U, U37C, G38U, U39G, G52C, C53U
B33: target 3 C1G,G3U (mixed)
RNA 1: B1 RNA 1
RNA 2: B1 RNA 2 with C45U, G47A, G49U, C51G

The binders below were run against T1, EsCas13d, nuclease-dead (assay: crRNA (strand 1, pre-loaded); Mg2+; 40 mM Tris-HCl pH 7.5, 150 mM NaCl, 6 mM MgCl2, 1 mM DTT, 0.1% Tween-20, 0.2 mg/ml BSA; 25 C; 10 min per concentration, then washed). Conditions: tags: His6-TwinStrep-SUMO cleaved; N-terminal SNAP kept (SNAP-Surface 488); label: 3' end held by stalled T7 RNA polymerase.
B1 showed a Kd of 0.0665 ± 0.011 µM.
In the case of B2, the Kd is reported as 0.0194 ± 0.00455 µM.
B3 was tested, and the Kd was 0.0175 ± 0.00435 µM.
For B4, the Kd was 0.068 ± 0.01 µM.
With B5 the Kd was 0.0135 ± 0.00165 µM.
For B6, the Kd was 0.08 ± 0.04 µM.
B7 gave a Kd of 0.0202 ± 0.00185 µM.
With B8 the Kd was 0.018 ± 0.004 µM.
Binder B9 has a Kd of 0.025 ± 0.00325 µM.
Work on B10 yielded a Kd of 0.0169 ± 0.00245 µM.
B11 gave a Kd of 0.0485 ± 0.0065 µM.
Work on B12 yielded a Kd of 0.00405 ± 0.0006 µM.
Work on B13 yielded a Kd of 0.0645 ± 0.0165 µM.
With B14 the Kd was 0.063 ± 0.016 µM.
With B15 the Kd was 0.0625 ± 0.018 µM.
With B16 the Kd was 0.0605 ± 0.0095 µM.
In the case of B17, the Kd is reported as 0.0369 ± 0.0052 µM.
With B18 the Kd was 0.008 ± 0.0009 µM.
B19 gave a Kd of 0.00525 ± 0.0007 µM.
B20 gave a Kd of 0.0149 ± 0.00195 µM.
Binder B21 has a Kd of 0.037 ± 0.006 µM.
Work on B22 yielded a Kd of 0.0555 ± 0.0125 µM.
With B23 the Kd was 0.027 ± 0.002 µM.
For B24, the Kd was 0.075 ± 0.026 µM.
B25 was tested, and the Kd was 0.0415 ± 0.0055 µM.
B26 was tested, and the Kd was 0.0335 ± 0.011 µM.
Binder B27 has a Kd of 0.0161 ± 0.0014 µM.
B28 showed a Kd of 0.0765 ± 0.0095 µM.
B29 showed a Kd of 0.0102 ± 0.0004 µM.
With B30 the Kd was 0.0154 ± 0.00145 µM.
B31 was tested, and the Kd was 0.043 ± 0.007 µM.
Binder B32 has a Kd of 0.0825 ± 0.017 µM.
Binder B33 has a Kd of 0.0186 ± 0.00335 µM.

Source: PMC10786891, “Massively parallel profiling of RNA-targeting CRISPR-Cas13d”
